The target of assay [1] is T1, gp100 peptide on HLA-A*02:01 (human).
T1 peptide: YLEPGPVTA
Nature of the assay: cytolytic efficiency of the parental 296 CTL clone, peptide titration; value cited from ref. 24; T cell clone or line.

Assay [2] deals with T2, gp100 (209-217 analogue) peptide on HLA-A*02:01 (human).
T2 peptide: IMDQVPFSV
Description: killing.

In assay [3] the target is T1, gp100 peptide on HLA-A*02:01. Nature of the assay: 51Cr release with peptide titrated on T2 cells; RNA-electroporated CD8+ T cells 24 h after electroporation; ED50 is the peptide concentration at 50% of maximum lysis; lower end of the range; full-length, on cells. On the procedure: (§1) CD8⁺ T cells were electroporated with EGFP RNA (Neg) or RNA coding for the TCR α and β chain, and were used as effector cells in cytotoxicity assays 24 h after electroporation. T2 cells loaded with different concentrations of gp100₂₈₀₋₂₈₈ peptide (as indicated) were used as target cells, and % lysis was calculated. The target to effector cell ratio was 1:15. The peptide concentration corresponding to 50% of the maximum lysis (ED₅₀), used to measure the cytolytic efficiency, is indicated by the dotted line. Average values of triplicates±SD are shown. Data of one (out of five) representative T cell donor is shown.
(§2) From previous published work, we know that the cytolytic efficiency of the parental 296 CTL clone was preserved following retroviral transduction of TCR genes into T cells. To test the avidity of the TCR RNA-transfected T cells, we performed a cytotoxicity assay (24 h after electroporation) in which we titrated the gp100₂₈₀₋₂₈₈ peptide on T2 target cells (FIG. 6). The peptide concentration corresponding to 50% of the maximum lysis (i.e. ED₅₀) of the TCR RNA-transfected T cells ranged from 300-1000 pM in three independent experiments (FIG. 6). This is in the same range as the cytolytic efficiency of the retrovirally transduced T cells (ED₅₀=300 pM). Both approximate the cytolytic efficiency of the parental 296 CTL clone, which has an ED₅₀ of 50 pM [24]. […]

Assay [4] shares this target. Nature of the assay: cytolytic efficiency of retrovirally transduced T cells, peptide titration; value taken from earlier work (ref. 24); full-length, on cells.
For assay [5] the target is unchanged. Nature of the assay: 51Cr release with peptide titrated on T2 cells; RNA-electroporated CD8+ T cells 24 h after electroporation; upper end of the range; full-length, on cells. The method, then:
as §1, §2

B1: gp100-specific 296 TCR (TCR, V domains shown)
Valpha: GENVEQHPSTLSVQEGDSAVIKCTYSDSASNYFPWYKQELGKGPQLIIDIRSNVGEKKDQRIAVTLNKTAKHFSLHITETQPEDSAVYFCAASTSGGTSYGKLTFGQGTILTVHP
Vbeta: EAQVTQNPRYLITVTGKKLTVTCSQNMNHEYMSWYRQDPGLGLRQIYYSMNVEVTDKGDVPEGYKVSRKEKRNFPLILESPSPNQTSLYFCASSLGSSYEQYFGPGTRLTVT
For the molecule B1, the EC50 of peptide is 50 pM in assay [1], not below 300 pM in assay [3], 300 pM in assay [4] and not above 1000 pM in assay [5]. For the same molecule, the binding result in assay [2] is “no recognition”.
